The values below come from patent US20230183366A1.

The experiment deals with Cohesin-human OX40 ectodomain protein (human) (UniProt P43489). As to the kind of experiment: SPR, antibody captured on protein A, soluble cohesin-human OX40 ectodomain injected.
UniProt P43489, sequence (P43489 26-211 limits assumed, form in doubt): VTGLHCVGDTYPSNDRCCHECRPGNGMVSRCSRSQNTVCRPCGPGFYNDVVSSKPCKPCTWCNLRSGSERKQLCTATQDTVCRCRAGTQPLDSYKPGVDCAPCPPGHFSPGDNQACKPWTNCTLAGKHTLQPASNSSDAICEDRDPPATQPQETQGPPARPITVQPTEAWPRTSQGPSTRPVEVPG

B1: humanized anti OX40 Ab24 IgG1 (antibody, V domains shown)
VH: QVQLQESGPGLVKPSQTLSLTCAVYGGSFSSGYWNWIRKHPGKGLEYIGYISYNGITYHNPSLKSRITINRDTSKNQYSLQLNSVTPEDTAVYYCARYKYDYDGGHAMDYWGQGTLVTVSS
VL: DIQMTQSPSSLSASVGDRVTITCRASQDISNYLNWYQQKPGKAPKLLIYYTSKLHSGVPSRFSGSGSGTDYTLTISSLQPEDFATYYCQQGSALPWTFGQGTKVEIKR
A word on the Kd: it is the equilibrium constant for the complex coming apart. The low end stands for a tighter complex, the high end for a looser complex. What is called koff is the first-order rate constant of dissociation. For orientation: kon means a measure of how fast the partners come together. On to B1, for which the Kd is 131 nM, the bracketed ratio of KD relative to Anti-OX40 IgG1 was 1, the bracketed ratio of Ka relative to Anti-OX40 IgG1 worked out at 1 and the bracketed ratio of kd relative to Anti-OX40 IgG1 amounted to 1. For the same molecule, the koff was found to be 0.0019 s⁻¹ and the association rate constant (kon) was determined as 14000 M⁻¹ s⁻¹.
